For series [1], the target named is Sak80αΔCTD (truncated Sak80α with its CTD removed) (phage 80α (Staphylococcus aureus phage)). Put plainly: cryo-EM structure; Sak80αΔCTD at 1.5 mg/ml in 20 mM Tris-HCl pH 7.6, 100 mM NaCl, 1 mM DTT; C18 symmetry.
Series [2] has as its system Stl2-ΔCTD (Staphylococcus aureus pathogenicity island SaPI2). Put plainly: EMSA. To be noted: EMSA: 20 mM Tris-HCl pH 7.0, 100 mM NaCl, 5% glycerol, 50 ng/µl BSA, 1 ng/µl salmon sperm DNA, 5 mM DTT, 2 nM FAM-DNA, room temperature 30 min; Stl2 + 5 mM ….
Series [3] addresses Sak80α, full-length, untagged, co-expressed with Stl2 from pETDuet-1 (phage 80α (Staphylococcus aureus phage)). Put plainly: cryo-EM structure; Stl2-Sak80α complex co-expressed from pETDuet-1 and co-purified, third elution peak of Superose 6, 1.5 mg/ml; D1 symmetry.
In series [4] the target is T1, Stl2-Sak4_52A complex (Staphylococcus phage 52A, UniProt Q4ZAS5).
T1 construct: both from E. coli BL21, mixed 1:1; with SaPI2 transcriptional repressor Stl (Staphylococcus aureus)
T1 sequence (A0FIL5 entry or part of it): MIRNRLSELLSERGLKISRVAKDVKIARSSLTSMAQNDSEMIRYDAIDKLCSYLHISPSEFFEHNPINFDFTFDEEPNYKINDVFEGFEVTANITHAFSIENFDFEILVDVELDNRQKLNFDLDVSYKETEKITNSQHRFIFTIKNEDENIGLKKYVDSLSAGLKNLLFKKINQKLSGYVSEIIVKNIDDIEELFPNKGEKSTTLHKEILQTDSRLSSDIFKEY
T1 sequence (Q4ZAS5 entry or part of it): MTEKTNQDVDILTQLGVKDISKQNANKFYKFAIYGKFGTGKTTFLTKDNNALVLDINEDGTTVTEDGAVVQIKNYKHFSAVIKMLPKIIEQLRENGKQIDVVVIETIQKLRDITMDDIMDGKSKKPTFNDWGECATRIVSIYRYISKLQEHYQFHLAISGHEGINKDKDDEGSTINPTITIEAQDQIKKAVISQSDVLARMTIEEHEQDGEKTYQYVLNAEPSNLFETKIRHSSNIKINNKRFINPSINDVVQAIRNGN
Put plainly: cryo-EM structure of the complex ([…] Å). Type of series: binding. The settings on record: 2 mM ATPγS, 20 mM Tris pH 7.6, 100 mM NaCl, 1 mM DTT, 37 °C 10 min, Stl2 1:1; site at Sak4_52A protomer interface (Lys41, Thr42, Tyr216 of one; Lys229, Arg231, His232 of the next).

Series [5] addresses Stl2 (SaPI2-encoded transcriptional repressor Stl), wild type, C-terminally histidine tagged (Staphylococcus aureus (SaPI2)). Put plainly: mass photometry; single proteins; diluted to 50 to 100 nM in 20 mM Tris pH 8.0, 0.5 mM EDTA, 200 mM NaCl, 2 mM DTT; self-association (dimer and large oligomers).

Turning to “Sak80αΔCTD (truncated Sak80α with its CTD removed) (domain or fragment)”, the stoichiometry N in series [1] was 18.

Regarding SaPI2 IGR (stl-str intergenic region), in series [2], the binding signal (fold reduction in affinity vs wild type) came out at 30.

In series [3], “Sak80α, full-length, untagged, co-expressed with Stl2 from pETDuet-1 (natural protein)” displayed a stoichiometry N of 17.

As to `Nc1ncnc2c1ncn2[C@@H]1O[C@H](COP(=O)(O)OP(=O)(O)OP(O)(O)=S)[C@@H](O)[C@H]1O` [ATPγS], the “cryo-EM structure of the complex (3.35 Å)” value in series [4] is “The nucleotide ATPγS is boxed and zoomed in on the left-hand side”.

In series [5], “Stl2 (SaPI2-encoded transcriptional repressor Stl), wild type, C-terminally histidine tagged (natural protein)” came in with a stoichiometry N of 2.

Usually stoichiometry N stands for a count of units in the complex or per binding partner.
